Results on three molecules are retold here after patent US20250289897A1 (Eli Lilly, published 2025).

In test [1] the target is T1, human FcγRI (CD64) extracellular domain (human, UniProt P12314 16-292).
T1 construct: extracellular domain; also called FcγRI ECD
Nature of the test: SPR at 25 C, antibody captured on Protein A chip.
Description: (§1) Briefly, the surfaces of all 4 flow cells were activated by injecting a 1:1 mixture of EDC/NHS for 7 minutes at 10 μL/minute. […] Un-reacted sites were blocked with a 7-minute injection of ethanolamine at 10 μL/minute. Injections of 2×10 μL of glycine pH 1.5 were used to remove any noncovalently associated protein.
(§2) For FcγRI binding, antibodies were diluted to 2.5 g/mL in running buffer (1x HBS-EP+, Teknova P/N H8022), and approximately 150 RU of each antibody was captured in flow cells 2 through 4 (RUcaptured). FC1 was the reference flow cell, therefore, no antibody was captured in FC1. […] Duplicate injections of each concentration were injected over all FCs at 40 μL/minute for 120 seconds followed by a 1200 second dissociation phase. Regeneration was performed by injecting 15 μL of 10 mM glycine pH 1.5 at 30 μL/minute over all FCs. Reference-subtracted data was collected as FC2-FC1, FC3-FC1, and FC4-FC1. The measurements were obtained at 25° C. The affinity (KD) was calculated using either steady state equilibrium analysis with the Scrubber 2 Biacore® Evaluation Software or a “1:1 (Langmuir) binding” model in BIA Evaluation.
(§3) For FcγRIIa, FcγRIIb, and FcγRIIIa binding, antibodies were diluted to 5 μg/mL in running buffer, and approximately 500 RU is captured in flow cells 2 through 4 (RUcaptured). FC1 is the reference flow cell. […] Duplicate injections of each concentration were injected over all FCs at 40 L/minute for 60 seconds followed by a 120 second dissociation phase. Regeneration was performed by injecting 15μL of 10 mM glycine pH 1.5 at 30 μL/minute over all FCs.

In test [2] the target is T2, human FcγRIIIA_158V (CD16a) extracellular domain (human, UniProt P08637 17-208).
T2 construct: extracellular domain
Nature of the test: SPR at 25 C, antibody captured on Protein A chip.
Description: as §1, §2, §3

Test [3] addresses T3, human FcγRIIA_131H (CD32a) extracellular domain (human, UniProt P12318 34-217).
T3 construct: extracellular domain
T3 sequence (looked up): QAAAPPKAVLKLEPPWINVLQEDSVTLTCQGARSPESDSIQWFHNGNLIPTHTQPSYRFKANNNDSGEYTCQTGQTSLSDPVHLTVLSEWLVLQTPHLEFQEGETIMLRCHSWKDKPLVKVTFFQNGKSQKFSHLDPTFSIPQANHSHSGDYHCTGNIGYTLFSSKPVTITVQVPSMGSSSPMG
Nature of the test: SPR at 25 C, antibody captured on Protein A chip.
Description: as §1, §2, §3

Test [4] deals with T4, human LEPR, full length, on HEK293-STAT3Luc-hLepR1 cells (Homo sapiens, UniProt P48357 22-1165).
T4 construct: also called human LEPR on live cell surface
T4 sequence: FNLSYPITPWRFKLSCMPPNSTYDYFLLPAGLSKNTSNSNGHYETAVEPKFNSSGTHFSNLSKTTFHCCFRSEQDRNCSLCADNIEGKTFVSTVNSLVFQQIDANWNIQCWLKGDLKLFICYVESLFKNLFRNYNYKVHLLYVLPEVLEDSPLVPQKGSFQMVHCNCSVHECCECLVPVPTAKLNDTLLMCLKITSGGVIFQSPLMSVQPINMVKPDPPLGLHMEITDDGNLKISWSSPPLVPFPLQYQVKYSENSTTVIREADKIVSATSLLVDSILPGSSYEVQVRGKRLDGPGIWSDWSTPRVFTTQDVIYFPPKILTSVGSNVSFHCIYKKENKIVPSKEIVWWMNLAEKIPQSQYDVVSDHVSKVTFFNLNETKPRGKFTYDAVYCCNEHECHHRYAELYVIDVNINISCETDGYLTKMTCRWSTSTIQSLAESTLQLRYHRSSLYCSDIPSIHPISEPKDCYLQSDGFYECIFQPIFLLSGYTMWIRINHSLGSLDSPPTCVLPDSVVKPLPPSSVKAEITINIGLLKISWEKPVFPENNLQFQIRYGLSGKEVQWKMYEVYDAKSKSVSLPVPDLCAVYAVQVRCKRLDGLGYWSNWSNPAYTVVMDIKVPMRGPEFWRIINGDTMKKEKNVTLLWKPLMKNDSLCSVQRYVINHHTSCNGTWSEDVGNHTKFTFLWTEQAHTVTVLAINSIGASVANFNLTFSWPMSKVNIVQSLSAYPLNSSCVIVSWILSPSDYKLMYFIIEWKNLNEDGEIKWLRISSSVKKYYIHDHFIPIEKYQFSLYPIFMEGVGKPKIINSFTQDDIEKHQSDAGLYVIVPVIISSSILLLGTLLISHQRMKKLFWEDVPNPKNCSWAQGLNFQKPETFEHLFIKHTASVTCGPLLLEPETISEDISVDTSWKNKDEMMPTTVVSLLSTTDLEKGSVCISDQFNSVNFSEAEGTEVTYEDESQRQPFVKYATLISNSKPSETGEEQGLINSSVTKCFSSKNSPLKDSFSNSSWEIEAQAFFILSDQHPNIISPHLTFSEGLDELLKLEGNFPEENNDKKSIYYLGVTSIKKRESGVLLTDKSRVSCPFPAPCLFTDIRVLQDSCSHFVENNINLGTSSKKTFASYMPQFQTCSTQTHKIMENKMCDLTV
In words: flow cytometry on live HEK293-STAT3Luc-hLepR1 cells, AF647 anti-human IgG; average of 4 runs, SD 1.0. On the technique in general: In flow cytometry, cells or beads pass a laser one at a time.
Description: (§4) Cells were incubated in blocking buffer for 10 mins at room temperature. After one rinse with PBS, cells were transferred to U-bottom 96-well plate at 200 μL and 0.2˜0.26^e6 cells/well. […] Cells were then incubated with 30 μL/well of antibodies diluted in flow buffer at 1000 nM as high dose followed by 9-point dose response including 5-fold dilutions not including 0 (totaling 9 concentrations for each Antibody) for 30 minutes at 4° C. in dark.

Test [5] concerns the target T5, cynomolgus monkey LEPR, full length, on HEK293-STAT3Luc-cmLepR2 cells (Macaca fascicularis).
T5 construct: whole, on cells; also called cyno-LEPR; Macaca fascicularis LEPR
In words: flow cytometry on live HEK293-STAT3Luc-cmLepR2 cells, AF647 anti-human IgG; average of 4 runs, SD 0.6.
Description: as §4

The next test concerns the target T6, Mouse LEPR-ECD-His (mouse, UniProt P48356 22-839).
T6 sequence: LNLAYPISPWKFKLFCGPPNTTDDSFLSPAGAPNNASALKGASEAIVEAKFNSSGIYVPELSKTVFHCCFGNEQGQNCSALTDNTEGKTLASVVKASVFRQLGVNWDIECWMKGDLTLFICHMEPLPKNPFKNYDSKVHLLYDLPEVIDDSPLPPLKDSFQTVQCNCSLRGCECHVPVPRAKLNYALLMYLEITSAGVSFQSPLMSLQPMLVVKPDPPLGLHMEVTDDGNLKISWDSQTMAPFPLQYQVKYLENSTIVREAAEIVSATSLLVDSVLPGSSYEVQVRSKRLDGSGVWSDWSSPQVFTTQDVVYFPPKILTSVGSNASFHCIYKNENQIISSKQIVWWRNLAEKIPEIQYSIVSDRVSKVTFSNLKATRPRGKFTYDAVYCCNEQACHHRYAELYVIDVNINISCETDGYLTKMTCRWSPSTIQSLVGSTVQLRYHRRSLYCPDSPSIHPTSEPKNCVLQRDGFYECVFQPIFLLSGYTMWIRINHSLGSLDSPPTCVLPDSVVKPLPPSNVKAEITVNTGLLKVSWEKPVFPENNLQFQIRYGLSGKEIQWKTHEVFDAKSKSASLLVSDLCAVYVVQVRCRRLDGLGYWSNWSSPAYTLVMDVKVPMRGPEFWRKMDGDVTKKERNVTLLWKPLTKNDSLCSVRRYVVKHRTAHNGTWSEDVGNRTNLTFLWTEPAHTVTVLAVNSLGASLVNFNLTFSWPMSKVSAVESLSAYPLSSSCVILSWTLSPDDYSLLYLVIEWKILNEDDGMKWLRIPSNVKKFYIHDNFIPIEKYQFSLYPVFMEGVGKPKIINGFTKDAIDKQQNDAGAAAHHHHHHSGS
In words: SPR (Biacore T200), antibody captured on Protein A/G chip, n = 1. In general terms: Surface plasmon resonance follows binding to a sensor surface in real time, without labels.

Test [6] concerns the target T5, cynomolgus monkey LEPR, full length, on …. In words: flow cytometry on live HEK293-STAT3Luc-cmLepR2 cells, AF647 anti-human IgG; average of 4 runs, SD 1.0.
Description: as §4

Numbering of substitutions follows the chain as printed.

T1 sequence (P12314 16-292): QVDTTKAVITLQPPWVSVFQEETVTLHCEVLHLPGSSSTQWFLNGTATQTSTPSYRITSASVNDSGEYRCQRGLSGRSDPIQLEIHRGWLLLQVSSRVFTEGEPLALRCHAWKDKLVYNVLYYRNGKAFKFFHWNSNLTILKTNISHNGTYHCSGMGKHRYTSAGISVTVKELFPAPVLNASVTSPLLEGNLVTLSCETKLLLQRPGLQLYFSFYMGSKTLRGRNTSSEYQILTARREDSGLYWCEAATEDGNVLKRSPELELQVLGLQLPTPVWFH
T2 sequence (P08637 17-208 F176V): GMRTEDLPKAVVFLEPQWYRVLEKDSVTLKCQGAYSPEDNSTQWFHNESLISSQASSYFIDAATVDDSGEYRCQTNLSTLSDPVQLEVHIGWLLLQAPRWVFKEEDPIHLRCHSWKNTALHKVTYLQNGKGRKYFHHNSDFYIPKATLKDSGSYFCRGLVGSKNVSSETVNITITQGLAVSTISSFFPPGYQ
Description for Mouse LEPR-ECD-His: His-tagged ECDs were expressed and purified for each species and used for affinity analysis. A Protein A/G chip (Xantec, Cat #PAGHC200M) was utilized in this experiment with HBS-EP +0.01% BSA as running buffer. Antibodies were diluted to 1 μg/mL in running buffer and captured to a single flow cell on the chip surface. Each species of LEPR-ECD was diluted to 1000 nM in running buffer followed by 2-fold serial dilution. Each ligand concentration was injected over all flow cells at 100 L/min for 150 seconds followed by a 600 second dissociation phase. Regeneration was performed by injecting 10 mM glycine pH1.5 for 30 seconds at 10 μL/min. Data were analyzed in Biacore T200 Evaluation Software 3.1 by flow-cell 1 reference subtraction along with 0 nM blank subtraction. Data were fit globally using a “1:1 Binding” binding model to determine the on-rate (kₐ) and off-rate (kd) for each ligand. The affinity (KD) was calculated from the binding kinetics according to the relationship KD=kₐ/kd. Data reported as mean±standard deviation of experimental replicates.

B1: Antibody A (antibody, human IgG1, kappa, L234A L235A)
heavy: EVQLLESGGGLVQPGGSLRLSCAASGFTFSSFAMSWVRQAPGKGLEWVSAISGSGGSTYSADSVRGRFTISRDNSKNTLYLQMNSLRAEDTAVYYCAKDQGDWDFLFDYWGQGTLVTVSSASTKGPSVFPLAPSSKSTSGGTAALGCLVKDYFPEPVTVSWNSGALTSGVHTFPAVLQSSGLYSLSSVVTVPSSSLGTQTYICNVNHKPSNTKVDKRVEPKSCDKTHTCPPCPAPEAAGGPSVFLFPPKPKDTLYITREPEVTCVVVSVSHEDPEVKFNWYVDGVEVHNAKTKPREEQYNSTYRVVSVLTVLHQDWLNGKEYKCKVSNKALPAPIEKTISKAKGQPREPQVYTLPPSREEMTKNQVSLTCLVKGFYPSDIAVEWESNGQPENNYKTTPPVLDSDGSFFLYSKLTVDKSRWQQGNVFSCSVMHEALHNHYTQKSLSLSPGK
light: DIQMTQSPSFLSASVGDRVTITCRASQGISSSLAWYQQKPGKAPKLLIYTASTLQSGVPSRFSGSGSGTEFTLTISSLQPEDFATYYCQQLIYYPFTFGQGTKVEIKRTVAAPSVFIFPPSDEQLKSGTASVVCLLNNFYPREAKVQWKVDNALQSGNSQESVTEQDSKDSTYSLSSTLTLSKADYEKHKVYACEVTHQGLSSPVTKSFNRGEC
notes: IgG1 mAb
For B1, the binding result in test [1] is “no binding (tested: FcγRI ECD tested up to 200 nM)”; in test [2] it was “no binding (tested: receptor ECD tested up to 10 µM)”; in test [3], “no binding (tested: receptor ECD tested up to 10 µM)”.

B2: Antibody C (antibody, human IgG1, kappa, L234A L235A, V domains shown)
VH: EVQLLESGGGLVQPGGSLRLSCAASGFTFSSFAMSWVRQAPGKGLEWVSAISGSGGSTYSADSVRGRFTISRDNSKNTLYLQMNSLRAEDTAVYYCAKDQGDWDFLFDYWGQGTLVTVSS
VL: DIQMTQSPSFLSASVGDRVTITCRASQGISSSLAWYQQKPGKAPKLLIYTASTLQSGVPSRFSGSGSGTEFTLTISSLQPEDFATYYCQQLNYYPFSFGQGTKVEIKR
B2: the results for the EC50 in test [4] and in test [5] were 1.33 nM and 0.83 nM, respectively. Besides, the binding result in the test with Mouse LEPR-ECD-His is “no binding (tested: LEPR-ECD tested up to 1000 nM)”.

B3: Antibody B (antibody, human IgG1, kappa, L234A L235A, V domains shown)
VH: B2 VH
VL: B2 VL with A25V, S97T
Regarding B3, the half-maximal effective concentration (EC50) in test [6] worked out at 1.11 nM.

As a reminder, the EC50 is the concentration at which the effect is half-maximal.
